Test results published in the supplement of paper PMC12042874.
± gives the uncertainty stated by the source.

Assay: amyloid nucleation score (Sup35N fusion, yeast selection) (log enrichment); library NNK2; higher = more nucleation; inactive = no reads after selection
How it was run: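 Libraries of peptides of 20 random codons fused to Sup35N were expressed in psi-negative yeast and induced 24 hours with 100 μM copper sulfate. Selection was 7 days at 30°C on medium lacking adenine and uracil, and plasmid inserts were Illumina-sequenced before and after selection. Nucleation score is the DiMSum log enrichment of output over input reads, centred on the mode score of non-aggregating sequences, and sequences with under 100 input reads were left out.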

Substance | amyloid nucleation score
SLSQMRLSVLSNKDHSIEL | 7.964 ± 0.056
SDPALVYRITYVIQ | -0.008 ± 0.49
ICWPSTVDEGLPFYLWIYAM | 0.23 ± 0.39
ISSEWEYHDT | inactive
TYPAHFVWLCNCCVDKYSLS | 2.79 ± 0.069
FGYVVVKRPSSMLLRASRDG | -0.619 ± 1
HESKYNVQVFN | -0.276 ± 0.76
VRKGCLTRACWRGCECMQGG | 2.03 ± 0.12
GVRMQLFGTLMSSAHQVRVG | 0.69 ± 0.17
NTLRMIPADFPSGRLEQTKV | 0.552 ± 0.4
DWWLNGLFP | inactive
CYRVVTLFNFK | 6.178 ± 0.029
WHLVGRRSID | -0.336 ± 0.76
LNIAMVASNGRSVAVRSSGG | 0.113 ± 0.5
WTTIEFRIKGNFM | 1.59 ± 0.19
NTRCRSVTLMLGFSMESKVH | 0.76 ± 0.54
GTLMTCVGG | inactive
SFHSCNVS | -0.363 ± 0.74
RCLNQTTYRNNSPCAVLWCM | 7.028 ± 0.058
AEWISLQQFLSLQKEFWIKA | -0.596 ± 0.76
KLPYVEIPVVLTSLSYLGV | inactive
DCDVSVNSVYITVKSAICAV | 0.767 ± 0.66

Substance | amyloid nucleation score
RPLCLLGRVATSKETSGRRC | 4.34 ± 0.049
GFKYVRSRNSGALYKYSS | -0.962 ± 0.54
CKSSGGWNVEMWSVK | -0.399 ± 0.41
AGDLKRLSSQQLM | 4.03 ± 0.051
RLISYNSCLSWSSWG | 3.48 ± 0.087
FSEVSCGLCTMYTLFVEFFN | 0.174 ± 1
YIHVVNTVSAVGVRRGSVGT | 0.031 ± 0.76
DLEIPFLKRKG | -0.349 ± 0.6
AWRVRTLQGFYGSDAWQSHD | -0.237 ± 0.79
NRNQRSVDRCGFSWYGTQIG | 1.3 ± 0.32
LCSSVLGGNRETAECFRFDQ | -0.67 ± 0.34
SLNLGRLYDLSMMLAWLGHQ | 2.16 ± 0.17
HKIPLFYCSYTELGSSVERR | 1.38 ± 0.15
YEHVIGVWYLGCQGGWVGDH | 0.354 ± 0.29
SLSRNGTVFARFRVSTSRCL | 4.23 ± 0.057
NERFFKILCWLFRRNSFTIE | -2.24 ± 1
TRCKGHYVWSLQSFRCSIVK | -0.512 ± 0.78
ASVAGSV | 0.781 ± 0.27
TPLLSWVTLFCCLGSPCLGT | 0.176 ± 0.76
LLPATWYLVLF | -0.204 ± 0.49
VRSSPTRVRERRSIILVLNC | 0.594 ± 0.81
IFVVCLGMDTVYLIGYYSPA | -1.25 ± 0.78

Substance | amyloid nucleation score
RFIRSWNFCDRD | inactive
FVVQPLSSFLWVSIA | 1.05 ± 0.3
DSDKLHDRDVVWNWGRGLYR | 0.399 ± 0.23
FIFRMHAFNGIRLWCV | 1.38 ± 0.22
TIYRSSSNNSQEHSLNLMFG | inactive
NHSMRPNRTVSGMLTSIYYR | -0.533 ± 0.55
NQQPKSLLYVSRRMQGTMIF | 0.089 ± 0.8
TDLVDPGGTKHRKDS | 0.523 ± 0.53
RRVGTC | -0.097 ± 0.74
DVVKNLYSSGLGLSTCMLYI | -0.95 ± 0.55
GFIYLILTL | 1.28 ± 0.13
HKMADSTNDSNRLEFDMFNE | -0.881 ± 0.78
MHGFNDAYFLCDVSAQGLV | -0.128 ± 0.28
GVFALSPRKHLRCDVVAWGV | 0.884 ± 0.55
SMPWYMYCIVYYVDVYCCNI | 6.566 ± 0.039
LLCCIIIIGMVLGLMTDPEW | -0.781 ± 0.76
QFSLSFSDFCKSLW | 6.287 ± 0.03
WRHSVVMYNWKIGHCVGDYW | 0.718 ± 0.18
NYAPGFTWFSMTNKKDFNVS | inactive
TNSMNGFFFR | -1.81 ± 1
SSFYTSGYPQNVSARGLGAE | 0.627 ± 0.56
ALFFRTKTKHWVSCRFLMS | 2.86 ± 0.078

Substance | amyloid nucleation score
SFLDYRSLTVMFVAGQSTVR | -0.645 ± 0.53
STALAFYP | inactive
CDRLSVNHFKEAGVQGSLSE | 0.851 ± 0.21
FTNVSEIWMSFGHNPESGLA | 2.92 ± 0.074
VDVVG | 0.299 ± 0.65
VNSLFDWNRAKFLIR | -1.39 ± 0.79
GVDKWLDHVCFVASYLSVKV | 1.22 ± 0.51
NDHLGVS | 3.69 ± 0.059
CTFSRMSVFACILANQSVFY | 7.861 ± 0.038
VKASFS | 0.798 ± 0.44
GGILH | -0.254 ± 1
SRFLDGSLLPKTNGLSQEMV | 0.122 ± 1.1
GIPMSSPNGLDTYSTPMH | 2.63 ± 0.074
RIYFGQIRGDW | 4.04 ± 0.12
CLVAQNVTVMVSGV | 5.94 ± 0.065
ENGTLTIYMVAL | 4.39 ± 0.075
SREVRNANPSSGDDGSIRVE | -0.02 ± 1.1
SCKWVRGVSRMPNHWN | -0.618 ± 1.1
RRRIWATM | -0.12 ± 0.31
APRGASALGCVYSDCSVVSI | 0.058 ± 1
